Data taken from the DeepSol protein solubility set.

Assay: soluble on expression in E. coli; label from the status in PepcDB or PDB records

| Sequence | soluble on expression in E. coli |
| --- | --- |
| MDLHELTARLHAIRDRNDWRQFHSPKNLAMAASVEMAELVEIFQWLTEDQSRTLSAEQLEHAGQEVGDIVLYLLLFCGETGLDLEQVVRAKLADCERRFLP | soluble |
| MDLNATNYIRGCQSKTYDGKIFPGKGGEKQWICKDTIIHGDTNGACIPPRTQNLCVGELWDKSYGGRSNIKNDTKELLKEKIKNAIHKETELLYEYHDTGTAIISKNDKKGQKGKNDPNGLPKGFCHAVQRSFIDYKNMILGTSVNIYEHIGKLQEDIKKIIEKGTPQQKDKIGGVGSSTENVNAWWKGIEREMWDAVRCAITKINKKNNNSIFNGDECGVSPPTGNDEDQSVSWFKEWGEQFCIERLRYEQNIREACTINGKNEKKCINSKSGQGDKIQGACKRKCEKYKKYISEKKQEWDKQKTKYENKYVGKSASDLLKENYPECISANFDFIFNDNIEYKTYYPYGDYSSICSCEQVK | soluble |
| MDLPQKKKFTESERAALAKKLDDDLDQFMEEMAARKSDKKEERKPFDFDDWCKEIDQHPAFMTEMPTDGKYQDTIEALQSMKYDKEDDEDKQMNAEHHKEEGNKHFKFKKYRWATDCYSNGIKENSPDRKLNAVLYFNRAAAQKHLGNLRSAIKDCSMGRKFDPTHLKGVIRGAECLLELEYAKDALNWIESSKKIFAFTKETSDTPDLTDDEKKFIDQLETLRVKSVELSLKEERDKRKSRAEERKETESKKQLLDALKERNLNLCPRVPFDRPELMDMARLTVSLPLMHSHECVKFDDDLNLVWPILLQYPEAGQTDVLTETNELTTVGELLKEVLNSPAQWDPEHKFNFENVRFFVSDEYDEYLMEVYEWNDFKSVLSMPGYQIKQGLPVIMIMTKEKAASSLEALAEDENRYVAK | soluble |
| MDLSAVRFDEKGLVPVVVQDARTGEVLTLAYANREALEETLRTRRSTFFSRSRQALWRKGETSGHTQEVVEVLLDCDGDAVVYRVLPQGPACHTGERTCFHRALLEGEKDLGFVVGQVYATIKERLRTLPEGSYVARMHQAGLDRILKKIGEEAGEVILAAKNQNPEELRHEAADLLFHLLLTLAELGLTPEDLAKTLWERHRPRSPYDGSHGN | soluble |
| MDLTKLTFESVFGGSDVPMKPSRSEDNKTPRNRTDLEMFLKKTPLMVLEEAAKAVYQKTPTWGTVELPEGFEMTLILNEITVKGQATSKKAARQKAAVEYLRKVVEKGKHEIFFIPGTTKEEALSNIDQISDKAEELKRSTSDAVQDNDNDDSIPTSAEFPPGISPTENWVGKLQEKSQKSKLQAPIYEDSKNERTERFLVICTMCNQKTRGIRSKKKDAKNLAAWLMWKALEDGIESLESYDMVDVIENLEEAEHLLEIQDQASKIKDKHSALIDILSDKKRFSDYSMDFNVLSVSTMGIHQVLLEISFRRLVSPDPDDLEMGAEHTQTEEIMKATAEKEKLRKKNMPDSGPLVFAGHGSSAEEAKQCACKSAIIHFNTYDFTD | not soluble |
| MDLVFRPERYPFLTQDLPGVGGEIRVEPEDFQVEEVPAYLPKGEGEHLYLLLEKEGRTTREVLEFLRDEVGVPEKEIGVAGLKDKRAKTRQWFSIPRKYEDALCLLENLQGVRLLAADLHTNKLRTGHLKGNRFHILIRRPKGGVAEAEAVLKRLAEKGVPNYYGPQRFGLGGLNPVRGYKLVKEGKGRGSPWLKRFLIGSLQSLLFNDWVALRMALGLYDRVVPGDWAKKHATGGEFLVEDPGEAERALRLEISATGPLFGKKYPEAQGEARAIEDEVLARYGLKREEFRARRGARRPIRVPLAEWKVEEAPEGLWLSFFLPKGSYATSLLREVMKVEALDHLEAEPAPEDAEGL | soluble |
| MDLWKLYQPGTPAAIVAWGQLGTAHAKTTYGLLRHSRLFKPVCVVAEHEGKMASDFVKPVRYDVPVVSSVEKAKEMGAEVLIIGVSNPGGYLEEQIATLVKKALSLGMDVISGLHFKISQQTEFLKIAHENGTRIIDIRIPPLELDVLRGGIYRKKIKVVGVFGTDCVVGKRTTAVQLWERALEKGIKAGFLATGQTGILIGADAGYVIDAVPADFVSGVVEKAVLKLEKTGKEIVFVEGQGALRHPAYGQVTLGLLYGSNPDVVFLVHDPSRDHFESFPEIPKKPDFEEERRLIETLSNAKVIGGVSLNGGFETDLPVYDPFNTDDLDEMLERAMVW | not soluble |
| MDMSLAEDAQETMATLAPDRFFFMSPYRSFTTSGCFARYTEPAVAGDSPDSPFQQKLRQQFAEAKSQGIANPILVGAIPFDTRQPSSLFIPMAWQSFSRQQKQRTARYFTDHQSLTVTARKAIPEQDAFEAMVARAAMLTATPDVDKVVLSRLIDITTDVAVDSGALLERLVAQNPVSYNFHVPLADGGVLLGASPELLLRKEGERFSSLPLAGSARRQPDDVLDREAGNRLLASQKDRHEHELVTQAMKQILRDRSTELQLPSSPQLITTPTLWHLGTPFEGKANAGENALTLACLLHPTPALSGFPHQVAKKLIAELEPFDRELFGGIVGWCDAEGNGEWVVTIRCAKLHGNQVRLFAGAGIVPASSPVGEWRETGVKLSTMLNVFGLH | soluble |
| MDNDRDTVEFWSSLFQSFADSEPKDNPYPVVRSPIMTMSTPMAIDEPVEPWKVLEYGGKEVRPMAIDEPAEPWKALEYGGKDVRPMAIDVPAEPWKVGGKEAQPANAAAEAGYKNVNTDQEKSTQKATEKVIM | soluble |
| MDNKIVYVVSDSVGETADLVVRAAMGQFPFAPDIRRVPYVEDTGTLKEVISIAKSNQALICFTLVKPDMRQYLVTEAAKEGVEAYDIIGPLIDQIEEITGQVPRYEPGVVRRLDEEYFKKIEAIEFAVKYDDGRDARGILKADIVLIGVSRTSKTPLSQYLAHNKRLKVANVPLVPEVDPPEELYQVAKEKCFGLKITPDKLNHIRKERLKSLGLSDGATYANINRIQEEIDHFEEVISRINCQVIDVSNKAIEETANIIVNAVQNQKMF | not soluble |
| MDNNEKEKSKSELLVVTGLSGAGKSLVIQCLEDMGYFCVDNLPPVLLPKFVELMEQGNPSLRKVAIAIDLRGKELFNSLVAVVDKVKSESDVIIDVMFLEASTEKLISRYKETRRAHPLMEQGKRSLINAINDEREHLSQIRSIANFVIDTTKLSPKELKERIRRYYEDEEFETFTINVTSFGFKHGIQMDADLVFDVRFLPNPYYVVDLRPLTGLDKDVYNYVMKWKETEIFFEKLTDLLDFMIPGYKKEGKSQLVIAIGCTGGQHRSVALAERLGNYLNEVFEYNVYVHHRDAHIESGEKK | not soluble |
| MDNYQEITRYLDNAREILSTKANKEGQFYKDIKYVQMASGTAYNAALMIADEYLRKKEGAKFTKPNSIDEYRVRLNKHNKTLLAYLNRAYDMLHLAGYYHGTPSVGTIKQGMEAAQKMLALIEH | soluble |
| MDPKAEGNGENITETAAGNVETSDFVNLKRQKREGVNSTGMSEIDMTGSQETPEHNMHGSPTHTDDLGPRLDADMLDSQSSHVSSSAQGNRSEVENELSNLFAKMALPGHDRRTDEYILVRQTGQDKFAGTTKCNLDHLPTKAEFNASCRLYRDGVGNYYPPPLAFERIDLPEQLAAQLHNLEPREQSKQCFQYKLEVWNRAHAEMGITGTDIFYQTDKNIKLDRNYKLRPEDRYIQTEKYGRREIQKRYEHQFQAGSLLPDILIKTPQNDIHFSYRFAGDAYANKRFEEFERAIKTKYGSDTEIKLKSKSGIMHDSKYLESWERGSADIRFAEFAGENRAHNKQFPAATVNMGRQPDGQGGMTRDRHVSVDYLLQNLPNSPWTQALKEGKLWDRVQVLARDGNRYMSPSRLEYSDPEHFTQLMDQVGLPVSMGRQSHANSVKFEQFDRQAAVIVADGPNLREVPDLSPEKLQQLSQKDVLIADRNEKGQRTGTYTNVVEYERLMMKLPSDAAQLLAEPSDRYSRAFVRPEPALPPISDSRRTYESRPRGPTVNSL | soluble |
| MDQAQRFLRQHPEHADLRIWGLNAFDPSQGNLLLPRLEWRRCGGKATLRLTLFSESSLQHDAIQAKEFIATLVSIKPLPGLHLTTTREQHWPDKTGWTQLIELATKTIAEGELDKVVLARATDLHFASPVNAAAMMAASRRLNLNCYHFYMAFDGENAFLGSSPERLWRRRDKALRTEALAGTVANHPDDKQAQQLGEWLMADDKNQRENMLVVEDICQRLQADTQTLDVLPPQVLRLRKVQHLRRCIWTSLNKADDVICLHQLQPTAAVAGLPRDLARQFIARHEPFTREWYAGSAGYLSLQQSEFCVSLRSAKISGNVVRLYAGAGIVRGSDPEQEWQEIDNKAAGLRTLLQME | not soluble |
